The results in this text go back to US20240317847A1 (Bayer, published 2024).

Where a chain is given by its changes, count along the chain named.

T1: murine IL-11 (mouse, UniProt P47873 22-199)
T1 sequence: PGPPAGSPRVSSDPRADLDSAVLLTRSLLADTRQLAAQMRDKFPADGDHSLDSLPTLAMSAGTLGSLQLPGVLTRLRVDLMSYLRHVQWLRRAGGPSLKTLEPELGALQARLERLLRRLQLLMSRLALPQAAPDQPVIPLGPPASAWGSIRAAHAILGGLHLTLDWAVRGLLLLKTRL

T2: human IL-11 (human, UniProt P20809 22-199)
T2 sequence: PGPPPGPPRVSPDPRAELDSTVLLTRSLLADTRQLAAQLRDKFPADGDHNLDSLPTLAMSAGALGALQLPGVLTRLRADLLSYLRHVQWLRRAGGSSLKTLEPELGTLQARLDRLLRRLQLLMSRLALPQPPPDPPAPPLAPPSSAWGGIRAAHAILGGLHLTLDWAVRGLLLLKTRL

T3: rat IL-11 (rat, UniProt Q99MF5 22-199)
T3 construct: Invigate, e.g. lot #C301019-19; also called rIL11
T3 sequence: T1 sequence with S50N, L84F, G94A, V137A, I138V

T4: cynomolgus IL-11 (cynomolgus, UniProt P20808 22-199)
T4 construct: Invigate, lot #C290621-19; also called cIL11; cynoL-11
T4 sequence: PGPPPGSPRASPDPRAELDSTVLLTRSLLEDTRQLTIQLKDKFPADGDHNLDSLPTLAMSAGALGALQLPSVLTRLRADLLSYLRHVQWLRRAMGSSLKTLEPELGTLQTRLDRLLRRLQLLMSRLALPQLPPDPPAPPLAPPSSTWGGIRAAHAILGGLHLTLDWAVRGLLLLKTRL

B1: TPP-29381 (antibody, human IgG1, V domains shown)
VH: EVQLLESGGGLVQPGGSLRLSCAASGFTFSSYGMHWVRQAPGKGLEWVAVISYDGSYKYYADSVKGRFTISRDNSKNTLYLQMNSLRAEDTAVYYCAAGVPDYWGQGTLVTVSS
VL: QSVLTQPPSASGTPGQRVTISCSGSSSNIGSDYDVHWYQQLPGTAPKLLIYSNNERPSGVPDRFSGSKSGTSASLAISGLRSEDEADYYCSAWDSSLSGPVFGGGTKLTVL
B2: TPP-29397 (antibody, human IgG1, V domains shown)
VH: B1 VH
VL: B1 VL with G30W, D32G, N54E, S91A, S98Y
B3: TPP-29394 (antibody, human IgG1, V domains shown)
VH: B1 VH
VL: B1 VL with S91A, S95F, S98Y
B4: TPP-29403 (antibody, human IgG1, V domains shown)
VH: B1 VH with M34G, V50L
VL: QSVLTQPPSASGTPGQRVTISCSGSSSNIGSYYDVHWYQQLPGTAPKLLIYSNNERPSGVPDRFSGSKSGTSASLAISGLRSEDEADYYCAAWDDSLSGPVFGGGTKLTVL
B5: TPP-29404 (antibody, human IgG1, V domains shown)
VH: B1 VH with M34G, V50L
VL: B1 VL with D32Y, S91A
B6: TPP-29401 (antibody, human IgG1, V domains shown)
VH: B1 VH with M34G
VL: B1 VL with D32Y, N54E, S91A, S95D
B7: TPP-29393 (antibody, human IgG1, V domains shown)
VH: B1 VH
VL: B1 VL with Y33L, N54E, S91A, S95D, S98Y
B8: TPP-29382 (antibody, human IgG1, V domains shown)
VH: B1 VH
VL: B1 VL with Y33L, S91A, S95F, S98Y
B9: TPP-29384 (antibody, human IgG1, V domains shown)
VH: B1 VH
VL: B1 VL with D32G, N54E, S91A, S95P
B10: TPP-29400 (antibody, human IgG1, V domains shown)
VH: B1 VH with M34G, V50L
VL: B1 VL with S91A, S95F
B11: TPP-29399 (antibody, human IgG1, V domains shown)
VH: B1 VH
VL: B1 VL with S91A
B12: TPP-29389 (antibody, human IgG1, V domains shown)
VH: B1 VH
VL: B1 VL with D32Y, N54E, S91A, S95P, S98Y
B13: TPP-29402 (antibody, human IgG1, V domains shown)
VH: B1 VH with M34G, V50L
VL: B1 VL with D32G, Y33L, N54E, S91A, S98Y
B14: TPP-29396 (antibody, human IgG1, V domains shown)
VH: B1 VH
VL: B1 VL with G30W, N54E, S91A, S95F, S98Y
B15: TPP-29392 (antibody, human IgG1, V domains shown)
VH: B1 VH
VL: B1 VL with G30W, N54E, S91A
B16: TPP-29383 (antibody, human IgG1, V domains shown)
VH: B1 VH
VL: B1 VL with Y33L, N54E, S91A, S95P, S98Y

The first experiment deals with T1, murine IL-11. Nature of the experiment: cell-based or functional assay.
Turning to B1, the “RGA Efficacy (%)” value was determined as 94.8% and the “RGA IC50” value stood at 0.45 nM.
Regarding B2, the “RGA Efficacy (%)” value was 93.8% and the “RGA IC50” value came out at 0.31 nM.
On to B3, for which the “RGA Efficacy (%)” value was 93.9% and the “RGA IC50” value worked out at 0.48 nM.
For B4, the “RGA Efficacy (%)” value was 94.3% and the “RGA IC50” value was determined as 0.27 nM.
For the molecule B5, the “RGA Efficacy (%)” value was 91.8% and the “RGA IC50” value worked out at 0.19 nM.
For the molecule B6, the “RGA Efficacy (%)” value was 96.9% and the “RGA IC50” value stood at 0.15 nM.
On to B7, for which the “RGA Efficacy (%)” value worked out at 96.2% and the “RGA IC50” value is 0.24 nM.
For the molecule B8, the “RGA Efficacy (%)” value stood at 87.5% and the “RGA IC50” value came to 0.26 nM.
For B9, the “RGA Efficacy (%)” value came to 97.2% and the “RGA IC50” value is 0.33 nM.
As to B10, the “RGA Efficacy (%)” value is 87.3%.
Take B11: the “RGA Efficacy (%)” value turned out to be 90%.
As to B12, the “RGA Efficacy (%)” value worked out at 97.4% and the “RGA IC50” value stood at 0.29 nM.
Take B13: the “RGA Efficacy (%)” value worked out at 95.5% and the “RGA IC50” value was determined as 0.19 nM.
As for B14, the “RGA Efficacy (%)” value amounted to 96.1% and the “RGA IC50” value worked out at 0.39 nM.
For the molecule B15, the “RGA Efficacy (%)” value came out at 89.3%.
For the molecule B16, the “RGA Efficacy (%)” value turned out to be 94.2% and the “RGA IC50” value was 0.57 nM.

For the next experiment, the target named is T2, human IL-11. Nature of the experiment: cell-based or functional assay.
For the molecule B1, the “RGA Efficacy (%)” value was found to be 75.3% and the “RGA IC50” value is 0.48 nM.
Regarding B2, the “RGA Efficacy (%)” value turned out to be 71% and the “RGA IC50” value turned out to be 0.53 nM.
For B3, the “RGA Efficacy (%)” value turned out to be 89.8% and the “RGA IC50” value amounted to 1.7 nM.
On to B4, for which the “RGA Efficacy (%)” value was found to be 82.4% and the “RGA IC50” value turned out to be 1.7 nM.
On to B5, for which the “RGA Efficacy (%)” value stood at 71.8% and the “RGA IC50” value stood at 0.72 nM.
As to B6, the “RGA Efficacy (%)” value is 83.3% and the “RGA IC50” value stood at 1.3 nM.
On to B7, for which the “RGA Efficacy (%)” value was found to be 87.3% and the “RGA IC50” value amounted to 0.61 nM.
In the same order, the values of B8 are 81.4% and 0.64 nM.
As for B9, the “RGA Efficacy (%)” value came to 81.9% and the “RGA IC50” value was 2.8 nM.
As for B10, the “RGA Efficacy (%)” value was found to be 59.6% and the “RGA IC50” value came to 0.46 nM.
As for B11, the “RGA Efficacy (%)” value came out at 70.2% and the “RGA IC50” value came out at 0.73 nM.
Turning to B12, the “RGA Efficacy (%)” value was found to be 87.3% and the “RGA IC50” value is 0.84 nM.
As to B13, the “RGA Efficacy (%)” value turned out to be 80.7% and the “RGA IC50” value was determined as 0.53 nM.
In the case of B14, the “RGA Efficacy (%)” value stood at 78.9% and the “RGA IC50” value turned out to be 0.65 nM.
Take B15: the “RGA Efficacy (%)” value stood at 80.2% and the “RGA IC50” value turned out to be 1.2 nM.
B16: the “RGA Efficacy (%)” value is 86% and the “RGA IC50” value turned out to be 1.6 nM.

Another experiment deals with T1, murine IL-11. Nature of the experiment: SPR, antibody captured, IL-11 as analyte.
As for B1, the Kd was determined as 0.57 nM.
The molecule B2 gave a dissociation constant Kd of 0.11 nM.
For B3, the affinity, expressed as Kd, was 0.65 nM.
Molecule B4 showed an equilibrium dissociation constant (Kd) of 0.18 nM.
On to B5, for which the affinity, expressed as Kd, was 0.091 nM.
Still for that read-out and setting: to B6 belongs 0.11 nM.
For the molecule B7, the Kd came out at 0.39 nM.
On the same count and under the same terms, to B8 belongs 0.56 nM; to B9, 0.3 nM; to B10, 0.96 nM.
In the case of B11, the Kd amounted to 0.93 nM.
On the same count and under the same terms, the value for B12 was 0.12 nM; that for B13 was 0.045 nM.
Turning to B14, binding was characterised by a dissociation constant (Kd) of 0.7 nM.
On to B15, for which the Kd is 1.1 nM.
Take B16: the Kd was 0.62 nM.

The next experiment deals with T2, human IL-11. Nature of the experiment: SPR, antibody captured, IL-11 as analyte.
B1 gave a Kd of 0.62 nM.
Same read-out and setting: the value for B2 was 0.35 nM; that for B3 was 1.2 nM; that for B4 was 0.77 nM.
Regarding B5, the affinity, expressed as Kd, was 0.2 nM.
The same measure, in the same setting: the value for B6 was 0.69 nM; that for B7 was 0.66 nM; that for B8 was 0.44 nM.
As to B9, the dissociation constant (Kd) is 0.98 nM.
On the same count and under the same terms, to B10 belongs 0.5 nM; to B11, 0.56 nM; to B12, 0.23 nM.
The same measure, in the same setting: the value for B13 was 0.19 nM.
B14 yielded a dissociation constant Kd of 0.78 nM.
As to B15, the dissociation constant (Kd) was 0.92 nM.
As to B16, the dissociation constant Kd was 1.1 nM.

A further experiment concerns the target T3, rat IL-11. Nature of the experiment: SPR, antibody captured, IL-11 as analyte.
In the case of B1, the Kd stood at 0.3 nM.
For B2, binding was put at a Kd of 0.057 nM.
B3 had an equilibrium dissociation constant (Kd) of 0.37 nM.
Same read-out and setting: to B4 belongs 0.11 nM; to B5, 0.067 nM.
Same read-out and setting: the value for B6 was 0.058 nM; that for B7 was 0.18 nM; that for B8 was 0.2 nM.
Molecule B9 had a Kd of 0.18 nM.
Same read-out and setting: to B10 belongs 0.75 nM.
Same read-out and setting: to B11 belongs 0.53 nM; to B12, 0.083 nM.
The molecule B13 gave an equilibrium dissociation constant (Kd) of 0.018 nM.
Regarding B14, the equilibrium dissociation constant (Kd) stood at 0.44 nM.
Take B15: binding was put at a Kd of 0.95 nM.
Molecule B16 yielded a Kd of 0.31 nM.

The next experiment deals with T4, cynomolgus IL-11. Nature of the experiment: SPR, antibody captured, IL-11 as analyte.
For the molecule B1, the Kd was determined as 0.43 nM.
Same read-out and setting: the value for B2 was 0.8 nM.
B3 had an equilibrium dissociation constant (Kd) of 0.67 nM.
Same read-out and setting: to B4 belongs 0.26 nM.
Still for that read-out and setting: to B5 belongs 0.14 nM; to B6, 0.23 nM.
On to B7, for which the dissociation constant Kd came to 0.72 nM.
For the molecule B8, the Kd turned out to be 0.46 nM.
B9 yielded a Kd of 0.86 nM.
On to B10, for which the equilibrium dissociation constant (Kd) stood at 0.35 nM.
Take B11: the Kd stood at 0.57 nM.
On to B12, for which the Kd worked out at 0.91 nM.
The same measure, in the same setting: to B13 belongs 0.32 nM; to B14, 0.92 nM; to B15, 0.85 nM.
In the case of B16, the dissociation constant (Kd) amounted to 1.3 nM.
